Source: patent US20200148768A1 (STCUBE, published 2020)
Residue numbers refer to the chain shown, from its start.

Columns and labels:
human BTN1A1-ECD-Fc [1] = target: T1, human BTN1A1-ECD-Fc (human, N-glycosylated (PNGase F sensitive)); assay: direct ELISA, coated BTN1A1-Fc, native Ag
T1 construct: also called BTN1A1-Fc; hBTN1A1-Fc
Procedure: In order to exclude the possibility that the observed binding was due to human Fc binding, ELISA was performed using human BTN1A1-Fc and human IgG1 control. The antigens BTN1A1-Fc and human IgG1 were coated onto ELISA plate. Antibodies were added to each well and binding was for each antibody determined by standard direct ELISA against the antigens. Human IgG1 binding antibodies were excluded from the candidates.

[2] = target: T2, human BTN1A1 wild type, expressed on cells (human, UniProt Q13410 27-526, glycosylated at N55 and N215 (extracellular)); assay: FACS, HEK293T overexpressing BTN1A1, FITC secondary
T2 construct: also as whole-cell lysate in western blots; also called BTN1A1 WT
T2 sequence: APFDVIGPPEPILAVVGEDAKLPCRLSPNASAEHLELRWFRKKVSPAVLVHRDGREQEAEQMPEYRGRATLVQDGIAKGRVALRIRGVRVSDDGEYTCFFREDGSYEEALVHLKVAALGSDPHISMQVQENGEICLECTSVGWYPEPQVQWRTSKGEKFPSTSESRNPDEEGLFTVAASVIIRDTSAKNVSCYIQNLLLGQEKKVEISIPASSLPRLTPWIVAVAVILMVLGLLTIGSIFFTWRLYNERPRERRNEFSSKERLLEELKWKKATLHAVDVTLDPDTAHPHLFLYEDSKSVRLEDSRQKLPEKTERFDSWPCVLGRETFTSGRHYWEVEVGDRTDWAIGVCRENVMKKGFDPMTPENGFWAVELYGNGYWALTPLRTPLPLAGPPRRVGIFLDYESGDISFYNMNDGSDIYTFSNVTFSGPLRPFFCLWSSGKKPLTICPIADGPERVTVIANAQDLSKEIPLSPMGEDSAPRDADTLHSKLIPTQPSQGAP
Procedure: To identify anti-BTN1A1-Fc MAbs that were specific for and which preferentially bound human BTN1A1-Fc antigen, different types of assays were performed. In a screening assay to detect preferential binding of MAbs to BTN1A1, antibody binding was determined based on the measurement of fluorescence intensity through FACS analysis (using cell membrane bound proteins). By way of example, the assay was performed using the HEK293T human embryonic kidney cell line. Illustratively, HEK293T cells overexpressing BTN1A1 were incubated with anti-BTN1A1 antibodies existing in hybridoma culture supernatant. After washing, secondary antibodies conjugated with FITC were added as detection agent. Fluorescence intensity (measured fluorescence intensity, MFI) was measured via FACS I flow cytometry analysis to assess the relative binding of the anti-BTN1A1 antibodies to membrane bound BTN1A1 WT on cells. […] Based on the binding analysis, sixty seven candidate MAb-producing hybridomas were selected, grown in ADCF medium, and their supernatant containing monoclonal antibody was concentrated and purified.

human BTN1A1-ECD-His6 = target: T3, human BTN1A1-ECD-His6 (human, UniProt Q13410 27-242, N-glycosylated (PNGase F sensitive)); assay: western blot after SDS-PAGE, native lanes (no DTT, no boiling) and reduced lanes (DTT, boiling)
T3 construct: also called BTN1A1-His; hBTN1A1-His
T3 sequence: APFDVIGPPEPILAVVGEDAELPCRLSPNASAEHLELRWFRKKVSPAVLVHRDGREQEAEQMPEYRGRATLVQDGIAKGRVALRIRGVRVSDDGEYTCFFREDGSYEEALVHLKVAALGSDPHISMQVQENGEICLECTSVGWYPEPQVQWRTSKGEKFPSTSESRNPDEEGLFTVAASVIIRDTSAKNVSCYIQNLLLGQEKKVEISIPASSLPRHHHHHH
Source text: FIG. 34—Dimer-specific binding of BTN1A1 antibody. FIG. 34 first panel from the left is an image of Coomassie blue stained SDS-PAGE gel, showing locations of monomer and dimer forms of the BTN1A1 protein in both native and reduced conditions along with a size standard. The second through fifth panels show western blots visualizing the monomer and dimer forms of the BTN1A1 protein in both native and reduced conditions using STC810, STC2602, STC2714 and STC 2781 antibody, respectively.
To determine the conformational specificity, Western blot analysis was performed using both dimer form of BTN1A1 (Fc fusion protein extracellular domain of BTN1A1) and monomer form of BTN1A1 (His-tagged protein of extracellular domain of BTN1A1). Proteins were treated with DTT (a reducing agent) and boiling or without reducing and denaturing by boiling. After running the proteins on SDS-PAGE, Western blot was performed by a standard protocol (FIG. 34). In a native condition (without a reducing agent and boiling), STC2714 recognized only Fc fusion protein, a dimerized form of BTN1A1 ECD, but not His-tagged protein, a monomer form of BTN1A1 ECD.

human BTN1A1-ECD-Fc [3] = target: T1, human BTN1A1-ECD-Fc; assay: direct ELISA, coated BTN1A1-Fc, denatured Ag
human BTN1A1-ECD-Fc [4] = target: T1, human BTN1A1-ECD-Fc; assay: Octet BLI, anti-mouse Fc capture
Procedure: Using a biosensor coated with anti-mouse Fc capture antibody, KD was determined by Kon and Koff. Antibodies with higher affinity (nanomolar range) were selected. Epitope binning is also used to categorize the epitope binding characteristics of panels of antibodies against a single target. This epitope binning experiment was designed to determine whether two different antibodies bind to the same epitope. If two antibodies bind to the same epitope of the antigen, then the binding of the first antibody will preclude the binding if the second antibody. If each antibody in a tested pair binds to a completely independent epitope, then binding of the first antibody will have no effect on the binding of the second. Through repeated testing, the antibodies are grouped according to epitope binding specificity. This experiment was performed using the Octet Red96 System (Pall ForteBio) with Bio-Layer Interferometry (BLI) to detect and analyze the interaction of biological molecules. Antigen was bound to the disposable sensors, then additional binding of antibody to the antigen was measured by change in delay of the reflection of the light passing through the sensor. A longer delay is indicative of more mass bound to the sensor, and this value is used to determine the degree of protein-antibody interaction.

[5] = target: T2, human BTN1A1 wild type, expressed on …; assay: FACS, 293T BTN1A1 WT against 2NQ
Procedure: The glyco-specificity of monoclonal anti-BTN1A1 antibodies was characterized by dot blot analysis. Each anti-BTN1A1 mAb (0.5 μg/well loaded) was tested for binding to glycosylated BTN1A1 (PNGaseF “−”) or deglycosylated BTN1A1 (PNGaseF “+”). Non-specific antibody controls (“IgG,” 0.25 μg/well loaded) was also included in the assay. As shown in FIGS. 19A-19B, both glycosylated BTN1A1 protein and non-glycosylated BTN1A1 (BTN1A1 protein treated with PNGase F) were coated on the solid phase and tested for mAb and antigen binding affinity. […] The glyco-specificity of monoclonal anti-BTN1A1 antibodies was also characterized by FACS analysis. […] After further washing, fluorescence intensity (MFI) was measured to assess relative binding of antibodies to membrane-bound glycosylated or unglycosylated BTN1A1. […] See, e.g., FIGS. 21A-C and Table 16.

human BTN1A1-ECD-Fc [6] = target: T1, human BTN1A1-ECD-Fc; assay: SPR (Biacore), antibody on mIgG capture chip, BTN1A1-ECD-Fc 2-64 nM
Procedure: (§1) An mIgG capture chip (BIAcore™) was coated with antibody with 600 response units (RU) and BTN1A1-ECD was injected into the microfluidic channel. KD values were obtained using fitting tools of the BIAevaluation software (BIAcore). FIGS. 22A-F provide sensograms showing real-time binding of dimeric BTN1A1-ECD-Fc (2-64 nM with 2-fold dilution; FIGS. 22A, C, and E) or of monomeric BTN1A1-ECD-His (2-64 nM with 2-fold dilution; FIGS. 22B, D, and F) to STC703, STC810, or STC820 immobilized on an mIgG capture CMS chip. Flow cells without any immobilized protein were used as the controls for non-specific binding and control cell signals were subtracted from test cell signals to produce the sensograms shown in FIGS. 22A-F.
(§2) The KD values for BTN1A1-ECD-Fc or BTN1A1-ECD-His binding to STC703, STC810, and STC820 as measured by Biacore assays are provided in Table 17 below.

human BTN1A1-ECD-Fc [7] = target: T1, human BTN1A1-ECD-Fc; assay: SPR (Biacore)
Procedure: as §1, §2

B1: STC2602 (antibody, V domains shown)
VH: EVQLQQSGPELVKPGASVKISCKASGFSFIGYYIDWVKQSPGKSLEWIGYIYPSNGETSYHQKCKGKATLTVDKSSSTVNMQLNSLTSEDSAVYYCARYGNYDWFFDVWGAGTTVTVSS
VL: QIVLTQSPAIMSASPGEKVTITCSASSSVSYMHWFQQKPGTSPKFWIYSTSNLASGVPIRFSGSGSGTSYSLTISRMEAEDAATYYCQQRSSYPYTFGGGTKLEIK
- ELISA (Native Ag) (human BTN1A1-ECD-Fc [1]): 1.39
- FACS (MFI) [2]: 69.5
- binding result (human BTN1A1-ECD-His6): no binding
- ELISA (Denatured Ag) (human BTN1A1-ECD-Fc [3]): 0.128
- Kd (human BTN1A1-ECD-Fc [4]): 2.35 nM

B2: STC2739 (antibody, V domains shown)
VH: QVQLKQSGPGLVQPSQSLSITCTVSGFSLTTHGVNWVRQSPGKGLEWLGVIWSGGSTDYNAAFISRLSISKDNSKSQVFFKMNSLQANDTAIYYCARPYYYGAMDYWGQGTSVTVSS
VL: B1 VL with A9S, M32I, F45L, I59A, S92I, Y95L, G99A, I105L
- ELISA (Native Ag) (human BTN1A1-ECD-Fc [1]): 0.956
- FACS (MFI) [2]: 841
- ELISA (Denatured Ag) (human BTN1A1-ECD-Fc [3]): 0.418
- Kd (human BTN1A1-ECD-Fc [4]): 0.0885 nM

B3: STC810 (antibody, V domains shown)
VH: EVQLQQSGPELVKPGASVKISCKASGYTFTHYNMDWVKQSHGKSLEWIGYIYPSNGGTGYNQKFKSRATLTVDKSSSTAYMELHSLTSEDSAVYYCARGAYHYGSSYAYWYFDVWGAGTTVTVSS
VL: DIQMTQTTSSLSASLGDRVTISCSASQDISNYLNWYQQKPDETVKLLISYTSSLHSGVPSRFSGSGSGTDYSLTISNLAPEDIATYYCQQSSKLPFTFGSGTELEIKR
notes: mouse monoclonal; kappa; also called mouse monoclonal anti-human BTN1A1 antibody STC810
- fold MFI on glycosylated over unglycosylated BTN1A1 [5]: ≥ 2 fold
- Kd (human BTN1A1-ECD-Fc [6]): 0.92 nM
- fold higher affinity than to monomeric BTN1A1-ECD-His (human BTN1A1-ECD-Fc [7]): > 100 fold

B4: STC2778 (antibody, V domains shown)
VH: QIQLVQSGPELKKPGETVKISCKASGYSFTNYGMNWVKQAPGKGLKWMGWINIYTGETTYGDDFKGRFAFSLETSASTAYLQINNLRSEDTATYFCVRGGTMIMYWGQGTTLTVSS
VL: DIVLTQSPATLSVTPGDSVSLSCRASQSISNNLHWHQQKSHESPRLLIKYASQSMSGIPSRFSGSGSGTDFTLSINSVETEDFGMYFCQQSDSWPLTFGAGTKLELK
- ELISA (Native Ag) (human BTN1A1-ECD-Fc [1]): 1.8
- FACS (MFI) [2]: 2340
- ELISA (Denatured Ag) (human BTN1A1-ECD-Fc [3]): 1.44
- Kd (human BTN1A1-ECD-Fc [4]): 0.436 nM
